Source: IntAct's records for PubMed 21577206

B1: Transgelin-2 (Homo sapiens), P37802 (parent)
chain: MANRGPAYGLSREVQQKIEKQYDADLEQILIQWITTQCRKDVGRPQPGRENFQNWLKDGTVLCELINALYPEGQAPVKKIQASTMAFKQMEQISQFLQAAERYGINTTDIFQTVDLWEGKNMACVQRTLMNLGGLAVARDDGLFSGDPNWFPKKSKENPRNFSDNQLQEGKNVIGLQMGTNRGASQAGMTGYGMPRQIL

Variants of: B1
Conditions: with actb_human ACTB

Variant | effect of a mutation on the interaction
S83A | increasing interaction
S83D | decreasing interaction
S163A | increasing interaction
S163D | decreasing interaction
